Target: the molecule itself
Assay: SEC

B1: GroEL-P (His6-GroEL of B. anthracis co-expressed with PrkCc in E. coli, phosphorylated) (natural protein)
chain: MAKDIKFSEEARRSMLRGVDTLANAVKVTLGPKGRNVVLEKKFGSPLITNDGVTIAKEIELEDAFENMGAKLVAEVASKTNDVAGDGTTTATVLAQAMIREGLKNVTAGANPMGLRKGIEKAVVAAVEELKTISKPIEGKSSIAQVAAISAADEEVGQLIAEAMERVGNDGVITLEESKGFTTELDVVEGMQFDRGYASPYMITDSDKMEAVLDNPYILITDKKISNIQEILPVLEQVVQQGKPLLIIAEDVEGEALATLVVNKLRGTFNVVAVKAPGFGDRRKAMLEDIAILTGGEVITEELGRDLKSATVESLGRAGKVVVTKENTTVVEGVGSTEQIEARIGQIRAQLEETTSEFDREKLQERLAKLVGGVAVIKVGAATETELKERKLRIEDALNSTRAAVEEGIVAGGGTSLMNVYTKVASIVAEGDEATGINIVLRALEEPVRQIAINAGLEGSVVVERLKGEKVGVGFNAATGEWVNMLETGIVDPAKVTRSALQNAASVAAMFLTTEAVVADKPEPNAPAMPDMGGMGMGGMGGMM
Which “stoichiometry N” value does the source give for B1 here?
Its value is 14.
